Source: US20230365649A1 (published 2023)
Numbering of substitutions follows the chain as printed. Values belong to the binder of their own block, whether it stands above or below them.

Legend:
[1] = molecular target: T1, KRAS G13D (G13D RAS; the same in KRAS, HRAS and NRAS) peptide on HLA-DQA1*05:01 / HLA-DQB1*03:01 (human); assay: cytokine release
T1 peptide: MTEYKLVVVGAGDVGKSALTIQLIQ

[2] = molecular target: T2, KRAS wild type (WT 25-mer) peptide on HLA-DQA1*05:01 / HLA-DQB1*03:01 (human); assay: cytokine release
T2 peptide: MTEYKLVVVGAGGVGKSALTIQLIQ

[3] = molecular target: T1, KRAS G13D (G13D RAS; the same in KRAS, …); assay: activation reporter or marker
[4] = molecular target: T2, KRAS wild type (WT 25-mer) peptide on …; assay: activation reporter or marker

B1: 4400 TCR-A1 (TCR, V domains shown)
Valpha: QKEVEQDPGPLSVPEGAIVSLNCTYSNSAFQYFMWYRQYSRKGPELLMYTYSSGNKEDGRFTAQVDKSSKYISLFIRDSQPSDSATYLCAMRANTDKLIFGTGTRLQVFP
Vbeta: DVKVTQSSRYLVKRTGEKVFLECVQDMDHENMFWYRQDPGLGLRLIYFSYDVKMKEKGDIPEGYSVSREKKERFSLILESASTNQTSMYLCASRLGNTGELFFGEGSRLTVL
- binding result [1]: recognises
- binding result [2]: no recognition

B2: 4400 TCR-J2 (TCR, V domains shown)
Valpha: NSVTQMEGPVTLSEEAFLTINCTYTATGYPSLFWYVQYPGEGLQLLLKATKADDKGSNKGFEATYRKETTSFHLEKGSVQVSDSAVYFCALRLSGAGSYQLTFGKGTKLSVIP
Vbeta: B1 Vbeta with R94S, L95Q
- binding result [3]: recognises
- binding result [4]: no recognition

B3: 4400 TCR-J (TCR, V domains shown)
Valpha: QKEVEQDPGPLSVPEGAIVSLNCTYSNSAFQYFMWYRQYSRKGPELLMYTYSSGNKEDGRFTAQVDKSSKYISLFIRDSQPSDSATYLCAMSYSGGGADGLTFGKGTHLIIQP
Vbeta: B1 Vbeta with R94S, L95Q
- binding result [1]: recognises
- binding result [2]: no recognition

B7: 4400 TCR-N12 (TCR, V domains shown)
Valpha: B3 Valpha
Vbeta: B1 Vbeta with R94S, L95T
- binding result [3]: recognises
- binding result [4]: no recognition

B10: 4400 TCR-20 (TCR, V domains shown)
Valpha: QKITQTQPGMFVQEKEAVTLDCTYDTSDPSYGLFWYKQPSSGEMIFLIYQGSYDQQNATEGRYSLNFQKARKSANLVISASQLGDSAMYFCAMRERSGGSYIPTFGRGTSLIVHP
Vbeta: DVKVTQSSRYLVKRTGEKVFLECVQDMDHENMFWYRQDPGLGLRLIYFSYDVKMKEKGDIPEGYSVSREKKERFSLILESASTNQTSMYLCASSLGTFNQPQHFGDGTRLSIL
- binding result [3]: recognises
- binding result [4]: no recognition

B12: 4400 TCR-E (TCR, V domains shown)
Valpha: DAKTTQPPSMDCAEGRAANLPCNHSTISGNEYVYWYRQIHSQGPQYIIHGLKNNETNEMASLIITEDRKSSTLILPHATLRDTAVYYCIVRVAKSGANNLFFGTGTRLTVIP
Vbeta: EADIYQTPRYLVIGTGKKITLECSQTMGHDKMYWYQQDPGMELHLIHYSYGVNSTEKGDLSSESTVSRIRTEHFPLTLESARPSHTSQYLCASSGLTYTDTQYFGPGTRLTVL
- binding result [1]: recognises
- binding result [2]: no recognition

Second part, the binder after the results:

- binding result [1]: recognises
- binding result [2]: no recognition
B4: 4400 TCR-A2 (TCR, V domains shown)
Valpha: B1 Valpha
Vbeta: B1 Vbeta with L95Q

- binding result [3]: recognises
- binding result [4]: no recognition
B5: 4400 TCR-N13 (TCR, V domains shown)
Valpha: B1 Valpha
Vbeta: B1 Vbeta with L95V

- binding result [3]: recognises
- binding result [4]: no recognition
B6: 4400 TCR-A3 (TCR, V domains shown)
Valpha: KTTQPNSMESNEEEPVHLPCNHSTISGTDYIHWYRQLPSQGPEYVIHGLTSNVNNRMASLAIAEDRKSSTLILHRATLRDAAVYYCILRAPSGTYKYIFGTGTRLKVLA
Vbeta: B1 Vbeta with L95Q

- binding result [1]: recognises
- binding result [2]: no recognition
B8: 4400 TCR-N (TCR, V domains shown)
Valpha: GEDVEQSLFLSVREGDSSVINCTYTDSSSTYLYWYKQEPGAGLQLLTYIFSNMDMKQDQRLTVLLNKKDKHLSLRIADTQTGDSAIYFCAPGGYNKLIFGAGTRLAVHP
Vbeta: B1 Vbeta with L95I

- binding result [3]: recognises
- binding result [4]: no recognition
B9: 4400 TCR-N4 (TCR, V domains shown)
Valpha: B10 Valpha with G99T, S100A, Y101S, I102K, P103L, R107T, S110R, I112Q, H114T, P115L
Vbeta: DVKVTQSSRYLVKRTGEKVFLECVQDMDHENMFWYRQDPGLGLRLIYFSYDVKMKEKGDIPEGYSVSREKKERFSLILESASTNQTSMYLCASSLGVGSNYGYTFGSGTRLTVV

- binding result [3]: recognises
- binding result [4]: no recognition
B11: 4400 TCR-C (TCR, V domains shown)
Valpha: QKITQTQPGMFVQEKEAVTLDCTYDTSDPSYGLFWYKQPSSGEMIFLIYQGSYDQQNATEGRYSLNFQKARKSANLVISASQLGDSAMYFCAMRERTGTASKLTFGTGTRLQVTL
Vbeta: B10 Vbeta with L95P, F98E, Q100S, Q102L, D106N, S111T, I112V, L113T
